Reference: US20130064836A1 (Novartis, published 2013)

Legend:
[1] = biological target: T1, human complement C5 protein (human, UniProt P01031 19-673; P01031 678-1676, Beta and alpha chains are joined by disulfide bonds. C5 was biotinylated in some assays.); assay: SET (MSD), purified Fab
T1 construct: Mature C5 is a beta and an alpha chain joined by disulfide bonds after loss of the RPRR linker; also called human C5; hu C5
Procedure: (§1) Streptavidin MSD plates were coated with 0.2 μg/ml biotinylated human C5 (30 μl/well) and blocked with 5% BSA in PBS. Subsequently the equilibrated samples were transferred to those plates (30 μl per well) and incubated for 20 min.

[2] = biological target: T2, cynomolgus C5 (Macaca fascicularis) (cynomolgus (Macaca fascicularis), Beta and alpha chains are joined by disulfide bonds; the protein is a serum glycoprotein.); assay: SET (MSD), purified Fab
T2 construct: also called cyno C5; cynoC5
T2 beta: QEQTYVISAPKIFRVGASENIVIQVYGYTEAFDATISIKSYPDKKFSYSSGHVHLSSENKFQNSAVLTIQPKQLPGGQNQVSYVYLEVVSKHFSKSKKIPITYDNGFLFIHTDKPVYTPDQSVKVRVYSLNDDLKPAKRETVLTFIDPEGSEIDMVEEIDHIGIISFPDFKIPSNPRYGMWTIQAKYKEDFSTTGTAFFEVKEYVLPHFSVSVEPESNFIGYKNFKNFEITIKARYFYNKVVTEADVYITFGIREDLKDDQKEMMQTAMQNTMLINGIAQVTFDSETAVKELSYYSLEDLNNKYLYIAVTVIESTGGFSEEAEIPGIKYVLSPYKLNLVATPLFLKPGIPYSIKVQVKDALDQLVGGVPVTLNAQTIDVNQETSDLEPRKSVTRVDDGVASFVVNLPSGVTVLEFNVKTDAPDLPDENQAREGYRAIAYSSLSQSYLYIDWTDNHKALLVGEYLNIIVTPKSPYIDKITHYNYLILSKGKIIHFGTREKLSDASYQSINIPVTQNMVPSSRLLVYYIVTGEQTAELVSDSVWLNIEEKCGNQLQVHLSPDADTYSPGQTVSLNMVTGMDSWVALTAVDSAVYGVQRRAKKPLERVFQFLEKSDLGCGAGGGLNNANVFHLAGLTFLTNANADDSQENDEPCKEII
T2 alpha: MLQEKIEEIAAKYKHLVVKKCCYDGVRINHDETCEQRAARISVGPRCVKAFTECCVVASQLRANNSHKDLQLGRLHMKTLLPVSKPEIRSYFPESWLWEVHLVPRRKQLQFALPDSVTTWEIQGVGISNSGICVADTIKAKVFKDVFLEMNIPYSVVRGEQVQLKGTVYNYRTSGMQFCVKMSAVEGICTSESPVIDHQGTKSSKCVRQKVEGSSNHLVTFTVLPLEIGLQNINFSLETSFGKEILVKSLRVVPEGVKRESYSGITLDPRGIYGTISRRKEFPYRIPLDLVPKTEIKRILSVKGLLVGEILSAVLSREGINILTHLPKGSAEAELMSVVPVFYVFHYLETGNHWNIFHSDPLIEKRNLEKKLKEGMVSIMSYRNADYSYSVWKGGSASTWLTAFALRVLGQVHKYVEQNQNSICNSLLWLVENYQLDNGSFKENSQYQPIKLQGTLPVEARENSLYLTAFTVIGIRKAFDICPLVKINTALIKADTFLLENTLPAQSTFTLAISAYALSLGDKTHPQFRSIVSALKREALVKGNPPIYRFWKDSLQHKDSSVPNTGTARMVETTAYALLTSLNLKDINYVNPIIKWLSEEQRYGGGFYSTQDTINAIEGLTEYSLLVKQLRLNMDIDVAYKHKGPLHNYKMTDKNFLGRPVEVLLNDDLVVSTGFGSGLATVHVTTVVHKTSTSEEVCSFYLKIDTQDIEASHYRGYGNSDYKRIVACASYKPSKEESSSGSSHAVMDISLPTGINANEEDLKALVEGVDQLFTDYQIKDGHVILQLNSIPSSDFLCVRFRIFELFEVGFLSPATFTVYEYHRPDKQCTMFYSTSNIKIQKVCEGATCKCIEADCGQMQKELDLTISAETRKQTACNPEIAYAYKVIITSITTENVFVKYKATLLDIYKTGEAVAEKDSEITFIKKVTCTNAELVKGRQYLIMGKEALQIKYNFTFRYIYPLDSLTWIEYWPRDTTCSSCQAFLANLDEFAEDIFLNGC
Procedure: as §1

[3] = biological target: T1, human complement C5 protein; assay: cell-based or functional assay
[4] = biological target: T1, human complement C5 protein; assay: cell-based or functional assay; remark: listed apart in the source
[5] = biological target: T2, cynomolgus C5 (Macaca fascicularis); assay: cell-based or functional assay
human complement C3 = biological target: T3, human complement C3 (human, UniProt P01024 23-667; P01024 672-1663); assay: solution ELISA: Fab with biotinylated antigen on NeutrAvidin plate, His-tag detection [huC3 panel]
T3 construct: Counter target in the ELISAs, coated directly or biotinylated; also called human C3
T3 sequence (P01024 23-667 limits assumed, chain 1 of 2): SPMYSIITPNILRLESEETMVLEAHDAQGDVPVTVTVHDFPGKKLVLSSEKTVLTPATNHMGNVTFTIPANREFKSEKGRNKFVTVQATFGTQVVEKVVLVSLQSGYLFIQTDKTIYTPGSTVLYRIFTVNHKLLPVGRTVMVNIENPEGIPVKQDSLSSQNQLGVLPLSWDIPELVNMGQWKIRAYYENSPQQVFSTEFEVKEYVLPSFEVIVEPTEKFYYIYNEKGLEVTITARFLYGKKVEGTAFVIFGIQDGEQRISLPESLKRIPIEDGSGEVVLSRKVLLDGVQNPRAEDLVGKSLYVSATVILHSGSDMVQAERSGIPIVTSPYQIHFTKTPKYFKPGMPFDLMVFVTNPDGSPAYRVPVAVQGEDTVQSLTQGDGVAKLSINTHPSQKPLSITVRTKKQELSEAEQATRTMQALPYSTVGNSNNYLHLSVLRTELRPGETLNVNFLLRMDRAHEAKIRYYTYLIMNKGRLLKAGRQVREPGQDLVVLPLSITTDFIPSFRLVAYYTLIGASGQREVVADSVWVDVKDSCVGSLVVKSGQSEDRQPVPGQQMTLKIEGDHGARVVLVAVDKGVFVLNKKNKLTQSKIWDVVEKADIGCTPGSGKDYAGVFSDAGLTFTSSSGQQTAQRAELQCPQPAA
T3 sequence (P01024 672-1663 limits assumed, chain 2 of 2): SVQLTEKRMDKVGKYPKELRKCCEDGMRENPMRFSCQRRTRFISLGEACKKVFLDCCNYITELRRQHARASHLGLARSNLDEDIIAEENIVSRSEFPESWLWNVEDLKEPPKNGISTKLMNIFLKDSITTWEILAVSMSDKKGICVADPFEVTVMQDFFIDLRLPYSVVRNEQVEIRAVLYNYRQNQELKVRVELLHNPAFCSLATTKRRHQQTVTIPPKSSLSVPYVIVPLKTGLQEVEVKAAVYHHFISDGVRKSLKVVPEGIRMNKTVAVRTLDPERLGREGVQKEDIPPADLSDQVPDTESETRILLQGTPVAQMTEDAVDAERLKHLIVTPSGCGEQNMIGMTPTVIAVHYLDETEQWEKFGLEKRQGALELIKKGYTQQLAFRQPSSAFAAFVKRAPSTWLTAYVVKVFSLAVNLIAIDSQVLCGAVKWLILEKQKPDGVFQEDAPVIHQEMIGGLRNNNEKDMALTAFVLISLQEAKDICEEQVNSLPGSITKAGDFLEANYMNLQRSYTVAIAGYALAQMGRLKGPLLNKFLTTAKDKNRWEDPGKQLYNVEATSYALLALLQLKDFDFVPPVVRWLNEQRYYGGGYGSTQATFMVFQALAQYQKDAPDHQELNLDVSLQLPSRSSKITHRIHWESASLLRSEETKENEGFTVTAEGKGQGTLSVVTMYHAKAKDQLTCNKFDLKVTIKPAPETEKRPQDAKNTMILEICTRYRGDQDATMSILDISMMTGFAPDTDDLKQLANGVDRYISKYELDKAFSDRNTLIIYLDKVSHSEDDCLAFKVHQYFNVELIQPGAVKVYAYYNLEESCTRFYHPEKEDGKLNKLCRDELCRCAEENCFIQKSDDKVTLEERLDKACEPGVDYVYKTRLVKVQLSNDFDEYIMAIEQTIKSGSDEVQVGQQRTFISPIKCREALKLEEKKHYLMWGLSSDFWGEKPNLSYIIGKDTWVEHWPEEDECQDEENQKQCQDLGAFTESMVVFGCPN
Procedure: (§2) Fabs were incubated with biotinylated antigen on a Neutravidin plate and detected via the histidin tag.

[6] = biological target: T1, human complement C5 protein; assay: solution ELISA: Fab with biotinylated antigen on NeutrAvidin plate, His-tag detection [huC5 panel]
Procedure: as §2

[7] = biological target: T2, cynomolgus C5 (Macaca fascicularis); assay: solution ELISA: Fab with biotinylated antigen on NeutrAvidin plate, His-tag detection [cynoC5 panel]
Procedure: as §2

B1: MOR07871 (Fab, V domains shown)
VH: QVQLVQSGAEVKKPGESLKISCKGSGYSFTSYYIGWVRQMPGKGLEWMGIIDPSDSHTTYSPSFQGQVTISADKSISTAYLQWSSLKASDTAMYYCARYMMRGFDHWGQGTLVTVSS
VL: DIELTQPPSVSVAPGQTARISCSGDSLGDYYAYWYQQKPGQAPVLVIYKDNNRPSGIPERFSGSNSGNTATLTISGTQAEDEADYYCQTWDTGESGVFGGGTKLTVLG
notes: light CS or A
In the case of B1, the Kd [1] is reported as 0.003 nM, the Kd [2] is reported as 0.004 nM and the “IC50; hemolysis AP, 100 pM human C5 [panel f]” value [3] is reported as 54.5 pM. For the same binder, the “IC50; hemolysis AP, 100 pM human C5 [panel j]” value [4] was 36.6 pM, the “IC50; hemolysis AP, 100 pM cyno C5 in 20% human C5-depleted serum [panel a]” value [5] was 0.111 nM and the “IC50; hemolysis AP, 100 pM cyno C5 in 20% human C5-depleted serum [panel f]” value [5] was 0.137 nM. For the same binder, the binding result (human complement C3) was “no binding (tested: 100 nM)”, the EC50 [6] was 0.849 nM and the EC50 [7] was 0.617 nM.
